Assay results taken from article doi:10.1101/2024.04.24.590854 (bioRxiv, 2024).

Target: reconstituted XPO1:RanGTP nuclear export receptor complex (human | yeast (ScRan), UniProt O14980 1-1071; P32835 1-179, Q71L)
Experiment: fluorescence polarisation

| Binder | binding result | Kd [nM] |
| --- | --- | --- |
| {5(6)‑carboxyfluorescein}-GLEGDLLEHISLTLSVSGLGA-NH2 [POU4F3 P125L(114-134) peptide] | binds |  |
| {5(6)‑carboxyfluorescein}-SPLDNMIRRLSLAERAQGPR-NH2 [ETV6 P214L(203-222) peptide] |  | 261 |
